Key:
[1] = target: CCR5 on HEK-R5 cells (HEK 293T cells stably expressing CCR5) (UniProt P51681); assay: radioligand binding
[2] = target: FLAG/SNAP-tagged wild-type (WT) CCR5, P51681; assay: radioligand binding; settings: remark: other sources report otherwise

gp120 Bx08-sCD4 complex (from UniProt P01730)
Kd [1]: 14.1 nM

B1: 125I-CCL3, P10147 24-92 (ligand)
chain: SLAADTPTACCFSYTSRQIPQNFIADYFETSSQCSKPGVIFLTKRSRQVCADPSEEWVQKYVSDLELSA
modifications: ends and bridges not checked; also: 125I-labelled, site not given here
Kd [2]: 0.36 nM
